Measurements from the supplement of paper PMC10567573.

B1: SLC6A17 (parent)
chain: KAVEEELDAEDRPAWNSKLQYILA

Variants of: B1
Experiment: protein stability index of a GFP-peptide fusion (GPS, HEK-293T) (PSI 1-6); higher = more stable
Details: c terminus: a fixed tail appended
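Further: lentivirally expressed fusions sorted by FACS into six bins by GFP to DsRed ratio, PSI derived from sequencing read proportions per bin multiplied by bin number.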

Variant | protein stability index
A24H | 2.15
A24K | 3.08
A24N | 3.48
A24W | 2.06
A24V | 1.68
A24R | 3.27
A24S | 2.82
A24P | 3.25
A24Y | 2.18
A24F | 2.73
A24E | 2.63
A24D | 3.55
A24T | 2.85
A24G | 3.52
A24I | 2.23
A24M | 2.06
V3I | 2.41
V3N | 3.07
V3C | 2.77
V3H | 1.52
V3M | 2.19
V3T | 2.43
V3D | 3.66
V3E | 2.75

Variant | protein stability index
V3Q | 2.91
V3W | 1.7
V3K | 2.94
V3A | 3.18
V3Y | 2.2
D11P | 2.02
D11A | 3.08
D11C | 1.99
D11L | 1.79
D11K | 2.67
D11R | 2.54
D11F | 2.07
D11T | 2.65
D11V | 2
D11I | 2.54
D11H | 2.59
E6D | 3.44
E6C | 2.07
E6V | 2.13
E6F | 1.73
E6N | 2.45
E6L | 1.7
E6A | 1.86
E6W | 1.16

Variant | protein stability index
E6R | 2.79
E6P | 2.53
E6G | 2.27
E6H | 2.55
E6S | 2.14
E6T | 2.24
E6I | 1.47
E6Y | 2.65
E6K | 2.7
E6M | 1.5
E6Q | 2.68
L23W | 3.19
L23E | 4.91
L23C | 3.59
L23Y | 3.01
L23K | 3.89
L23G | 3.99
L23N | 4.18
L23P | 3.97
L23S | 4.23
L23F | 3.03
L23V | 3.17
L23I | 2.64
L23A | 3.9

Variant | protein stability index
L23H | 3.84
L23D | 4.9
L23Q | 3.82
L23R | 4.42
Y21H | 3.16
Y21I | 3.09
Y21N | 3.42
Y21P | 4.58
Y21Q | 2.75
Y21V | 2.08
Y21F | 2.9
Y21D | 3.92
Y21A | 3.99
Y21K | 3.67
Y21R | 2.8
K1A | 2.65
K1D | 2.96
K1W | 1.74
K1E | 3.19
K1V | 3.64
K1Y | 2.05
K1C | 1.62
K1R | 2.34
K1M | 2.77

Variant | protein stability index
K1T | 2.39
K1I | 2.12
K1L | 2.08
K1H | 2.83
K1G | 3.25
A14E | 3.08
A14T | 3.2
A14Y | 2
A14M | 2.1
A14L | 1.99
A14I | 2.5
A14S | 4.07
A14N | 2.2
A14D | 3.38
A14K | 2.62
A14R | 2.3
A14Q | 2.4
K18I | 2.13
K18V | 1.64
K18D | 4
K18A | 3.16
K18W | 2.53
K18R | 2.69
K18P | 3.77

Variant | protein stability index
K18H | 2.7
K18N | 4.01
K18F | 2.17
K18Y | 3.15
E10A | 2.27
E10M | 1.47
E10R | 2.83
E10V | 1.9
E10K | 2.5
E10G | 3.72
E10W | 1.76
E10C | 2.23
E10D | 2.52
E10L | 2.15
E10Y | 1.93
E10Q | 1.67
E10P | 2.28
E10N | 2.57
E10F | 2.63
S17N | 3.15
S17K | 2.19
S17A | 2.55
S17W | 1.82
S17R | 3.4

Variant | protein stability index
S17H | 2.23
S17E | 4.48
S17Y | 2.16
S17F | 2.5
S17T | 2.25
S17V | 2.46
S17C | 1.99
S17G | 2.75
S17Q | 2.32
S17D | 3.17
S17M | 2.33
Q20C | 2.13
Q20D | 3.56
Q20P | 3.25
Q20H | 2.53
Q20L | 1.88
Q20M | 2.16
Q20A | 2.06
Q20N | 2.9
Q20T | 2.25
Q20S | 2.71
Q20Y | 2.4
Q20R | 3.39
L7V | 2.9

Variant | protein stability index
L7Q | 2.53
L7A | 3.74
L7P | 3.64
L7C | 3.5
L7K | 2.85
L7D | 3.48
L7Y | 2.51
L7N | 3.42
L7I | 2.08
L7M | 2.98
L7F | 2.23
L7R | 3.53
L7G | 4.11
I22G | 4.06
I22E | 5.01
I22M | 1.79
I22K | 3.78
I22D | 4.86
I22T | 4.4
I22A | 3.8
I22N | 4.41
I22F | 2.2
I22Y | 3.94
I22W | 2.9

Variant | protein stability index
I22V | 3.04
N16A | 2.25
N16Q | 2.1
N16W | 2.05
N16K | 2.52
N16M | 2.37
N16T | 2.07
N16V | 2.58
N16F | 2.14
N16Y | 2.09
N16E | 2.81
N16R | 2.75
N16C | 2.08
N16D | 3.45
N16I | 2.05
N16P | 2.75
N16L | 2.06
N16S | 3.01
W15E | 4.65
W15I | 3.69
W15Q | 4.04
W15F | 3.1
W15D | 3.94
W15R | 3.62

Variant | protein stability index
W15L | 2.52
W15H | 4.06
W15M | 3.74
W15T | 3.46
W15A | 3.89
W15C | 3.64
W15V | 2.2
W15N | 4.13
W15Y | 2.77
P13I | 1.42
P13R | 2.44
P13E | 2.41
P13F | 2.63
P13Y | 2.65
P13A | 1.54
P13M | 2.79
P13C | 2.28
P13S | 2.27
P13L | 1.85
P13T | 3.06
P13N | 2.31
P13D | 2.72
E5Y | 1.66
E5H | 2.32

Variant | protein stability index
E5K | 2.08
E5D | 1.75
E5M | 2.05
E5T | 2.33
E5L | 2.14
E5S | 2.51
E5G | 1.89
E5N | 1.63
E5P | 2.7
E5V | 2.9
E5F | 1.91
A2C | 2.21
A2E | 1.96
A2Y | 2.51
A2D | 2.65
A2G | 2.81
A2F | 1.93
A2M | 2.43
A2L | 1.55
A2W | 1.49
A2I | 2.19
A2K | 2.46
A2H | 2.24
A2V | 2.23

Variant | protein stability index
A2S | 2.81
A2P | 2.68
L19Q | 3.92
L19H | 3.69
L19K | 3.99
L19I | 2.52
L19V | 2.28
L19D | 4.1
L19W | 2.48
L19Y | 2.52
L19M | 2.8
L19F | 2.96
L19N | 4.2
L19P | 3.4
D8Y | 2.08
D8P | 3.77
D8T | 2.57
D8K | 2.93
D8L | 1.77
D8E | 2.64
D8V | 2.91
D8S | 3.15
D8F | 2.19
D8R | 2.75

Variant | protein stability index
D8A | 3.21
D8I | 2.57
D8N | 2.46
D8C | 2.14
E4Q | 2.51
E4P | 2.54
E4L | 3.26
E4S | 2.21
E4Y | 1.8
E4K | 2.52
E4C | 2.31
E4V | 2.03
E4R | 2.98
E4F | 1.43
E4G | 2.12
E4H | 2.24
E4D | 2.79
E4N | 2.63
A9Q | 2.44
A9R | 2.69
A9I | 2.02
A9P | 2.54
A9W | 2.06
A9D | 2.38

Variant | protein stability index
A9K | 3.15
A9V | 3.1
A9N | 2.83
A9F | 1.95
A9T | 2.82
A9C | 2.65
A9G | 2.24
R12K | 2.83
R12A | 3.54
R12S | 3.4
R12W | 2.19
R12L | 2.45
R12Y | 2.2
R12G | 2.32
R12F | 1.76
R12C | 2.8
R12M | 2.19
R12N | 2.97
R12E | 3.95
R12H | 2.41
R12T | 3.82
R12I | 2.47
